Experimental findings from article PMC4783868 (Nature, 2015) are described below.

This test concerns the target T1, PB1 subunit of the influenza C/Johannesburg/1/1966 virus polymerase (FluPolC) (influenza C/Johannesburg/1/1966 virus, UniProt Q9IMP4).
T1 sequence: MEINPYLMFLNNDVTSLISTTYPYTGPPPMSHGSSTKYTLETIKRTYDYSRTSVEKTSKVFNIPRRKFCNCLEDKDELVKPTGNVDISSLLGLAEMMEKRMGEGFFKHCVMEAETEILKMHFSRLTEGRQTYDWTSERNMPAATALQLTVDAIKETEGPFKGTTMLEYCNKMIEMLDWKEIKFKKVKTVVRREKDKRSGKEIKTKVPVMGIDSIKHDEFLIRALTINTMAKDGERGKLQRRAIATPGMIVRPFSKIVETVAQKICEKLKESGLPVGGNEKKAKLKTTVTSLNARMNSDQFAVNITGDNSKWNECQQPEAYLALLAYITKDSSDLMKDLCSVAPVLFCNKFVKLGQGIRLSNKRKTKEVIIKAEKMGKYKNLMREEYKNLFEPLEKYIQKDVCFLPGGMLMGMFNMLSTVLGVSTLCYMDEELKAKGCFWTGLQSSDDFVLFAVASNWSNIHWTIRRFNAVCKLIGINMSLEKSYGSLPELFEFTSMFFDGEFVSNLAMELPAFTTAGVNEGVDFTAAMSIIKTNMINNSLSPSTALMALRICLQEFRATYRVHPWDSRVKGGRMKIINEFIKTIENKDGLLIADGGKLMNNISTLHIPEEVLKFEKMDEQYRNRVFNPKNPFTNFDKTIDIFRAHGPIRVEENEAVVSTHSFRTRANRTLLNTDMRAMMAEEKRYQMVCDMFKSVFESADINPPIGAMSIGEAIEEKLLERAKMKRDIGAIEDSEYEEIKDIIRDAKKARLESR
Description: crystal structure.

B1: P3 subunit of the influenza C/Johannesburg/1/1966 virus polymerase (FluPolC) (natural protein)
chain: MSKTFAEIAEAFLEPEAVRIAKEAVEEYGDHERKIIQIGIHFQVCCMFCDEYLSTNGSDRFVLIEGRKRGTAVSLQNELCKSYDLEPLPFLCDIFDREEKQFVEIGITRKADDSYFQSKFGKLGNSCKIFVFSYDGRLDKNCEGPMEEQKLRIFSFLATAADFLRKENMFNEIFLPDNEETIIEMKKGKTFLELRDESVPLPFQTYEQMKDYCEKFKGNPRELASKVSQMQSNIKLPIKHYEQNKFRQIRLPKGPMAPYTHKFLMEEAWMFTKISDPERSRAGEILIDFFKKGNLSAIRPKDKPLQGKYPIHYKNLWNQIKAAIADRTMVINENDHSEFLGGIGRASKKIPEISLTQDVITTEGLKQSENKLPEPRSFPRWFNAEWMWAIKDSDLTGWVPMAEYPPADNELEDYAEHLNKTMEGVLQGTNCAREMGKCILTVGALMTECRLFPGKIKVVPIYARSKERKSMQEGLPVPSEMDCLFGICVKSKSHLNKDDGMYTIITFEFSIREPNLEKHQKYTVFEAGHTTVRMKKGESVIGREVPLYLYCRTTALSKIKNDWLSKARRCFITTMDTVETICLRESAKAEENLVEKTLNEKQMWIGKKNGELIAQPLREALRVQLVQQFYFCIYNDSQLEGFCNEQKKILMALEGDKKNKSSFGFNPEGLLEKIEECLINNPMCLFMAQRLNELVIEASKRGAKFFKTD
As to B1, the binding result is “binds”.
